Biological target: recombinant human GST-MDM2 (human) (UniProt Q00987)
Test: fluorescence polarisation

Chain of recombinant human GST-MDM2 (human) (Q00987 whole entry): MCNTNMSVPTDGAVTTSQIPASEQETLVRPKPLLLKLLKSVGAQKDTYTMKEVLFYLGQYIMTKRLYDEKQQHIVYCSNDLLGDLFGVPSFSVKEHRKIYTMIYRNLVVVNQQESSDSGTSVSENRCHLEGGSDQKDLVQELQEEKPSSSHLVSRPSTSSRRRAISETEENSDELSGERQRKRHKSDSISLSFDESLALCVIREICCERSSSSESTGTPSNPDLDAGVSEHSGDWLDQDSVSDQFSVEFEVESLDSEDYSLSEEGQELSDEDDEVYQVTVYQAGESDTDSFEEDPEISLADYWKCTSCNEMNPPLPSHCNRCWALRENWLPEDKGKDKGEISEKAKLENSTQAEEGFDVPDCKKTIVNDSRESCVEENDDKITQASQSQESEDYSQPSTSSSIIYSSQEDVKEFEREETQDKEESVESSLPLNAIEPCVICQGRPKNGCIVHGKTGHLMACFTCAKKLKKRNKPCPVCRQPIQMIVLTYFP

Cy5-r9-PMIγ (peptide)
Kd: 57 nM

— paper PMC12814185, “Receptor-Mediated Shuttling of a D‑Amino Acid Peptide Achieves High Nanomolar Cytosolic Concentrations” (Journal of the American Chemical Society, 2025)
